Drawing on PMC9355967 (Nature Communications, 2022), this text covers Kd for 1 molecule.

In test [1] the target is T1, purified AFDN FHA domain, C-terminally extended (371-580) (mouse, UniProt Q9QZQ1 371-580).
T1 construct: 15N-labelled in one NMR experiment; GST probably cut off with thrombin; also called extended FHA domain; source: E. coli BL21, purified (glutathione resin, thrombin cleavage or glutathione elution, SEC)
T1 sequence (looked up): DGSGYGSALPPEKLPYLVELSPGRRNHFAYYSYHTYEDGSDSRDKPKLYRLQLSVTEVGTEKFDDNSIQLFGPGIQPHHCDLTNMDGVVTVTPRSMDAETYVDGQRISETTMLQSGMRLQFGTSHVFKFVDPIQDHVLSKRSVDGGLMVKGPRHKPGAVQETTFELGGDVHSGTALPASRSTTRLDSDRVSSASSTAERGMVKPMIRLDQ
The experiment in a line: ITC; MicroCal ITC200, 25 °C, 20 mM Tris-HCl pH 7.5, 20 mM NaCl, 1 mM DTT. Conditions: both partners purified. On the technique in general: Isothermal titration calorimetry measures the heat released or taken up as one component is titrated into another.

The target in test [2] is T1, purified AFDN FHA domain, C-terminally …. Kind of test: ITC; MicroCal ITC200, 25 °C, 20 mM Tris-HCl pH 7.5, 150 mM NaCl, 1 mM DTT. Conditions: both partners purified.

What is called Kd is the constant that tells how readily two partners part at equilibrium. Higher therefore signals lower affinity.

B1: purified SCRIB PDZ1 domain (718-820) (domain or fragment)
chain: not shown
notes: 15N-labelled in one NMR experiment; GST probably cut off with thrombin (it was mixed with GST fusions on glutathione beads); source: E. coli BL21, purified (glutathione resin, thrombin cleavage or glutathione elution, SEC)
As to B1, the Kd in test [1] was 5.7 µM; in test [2], 14.8 µM.
